The text below walks through data of paper PMC9760430, “A stapled chromogranin A-derived peptide homes in on tumors that express αvβ6 or αvβ8 integrins” (International Journal of Biological Sciences, 2023).

Ends that are not written are not given here. Where only a bound is given, the exact number is not on record here.

Experiment [1] addresses recombinant murine αvβ6 integrin (murine) (UniProt P43406). The experiment is described as follows: direct integrin binding assay (near-infrared fluorescence scan of plates); microtiter plates coated with αvβ6 or αvβ8; peptide-IRDye conjugates incubated 1 h, washed, bound fluorescence read with Odyssey CLx; EC50.
Experiment [2] deals with recombinant murine αvβ8 integrin (murine) (UniProt P43406). Described as above.
Chain of recombinant murine αvβ8 integrin (murine) (P43406 whole entry, chain 1 of 2): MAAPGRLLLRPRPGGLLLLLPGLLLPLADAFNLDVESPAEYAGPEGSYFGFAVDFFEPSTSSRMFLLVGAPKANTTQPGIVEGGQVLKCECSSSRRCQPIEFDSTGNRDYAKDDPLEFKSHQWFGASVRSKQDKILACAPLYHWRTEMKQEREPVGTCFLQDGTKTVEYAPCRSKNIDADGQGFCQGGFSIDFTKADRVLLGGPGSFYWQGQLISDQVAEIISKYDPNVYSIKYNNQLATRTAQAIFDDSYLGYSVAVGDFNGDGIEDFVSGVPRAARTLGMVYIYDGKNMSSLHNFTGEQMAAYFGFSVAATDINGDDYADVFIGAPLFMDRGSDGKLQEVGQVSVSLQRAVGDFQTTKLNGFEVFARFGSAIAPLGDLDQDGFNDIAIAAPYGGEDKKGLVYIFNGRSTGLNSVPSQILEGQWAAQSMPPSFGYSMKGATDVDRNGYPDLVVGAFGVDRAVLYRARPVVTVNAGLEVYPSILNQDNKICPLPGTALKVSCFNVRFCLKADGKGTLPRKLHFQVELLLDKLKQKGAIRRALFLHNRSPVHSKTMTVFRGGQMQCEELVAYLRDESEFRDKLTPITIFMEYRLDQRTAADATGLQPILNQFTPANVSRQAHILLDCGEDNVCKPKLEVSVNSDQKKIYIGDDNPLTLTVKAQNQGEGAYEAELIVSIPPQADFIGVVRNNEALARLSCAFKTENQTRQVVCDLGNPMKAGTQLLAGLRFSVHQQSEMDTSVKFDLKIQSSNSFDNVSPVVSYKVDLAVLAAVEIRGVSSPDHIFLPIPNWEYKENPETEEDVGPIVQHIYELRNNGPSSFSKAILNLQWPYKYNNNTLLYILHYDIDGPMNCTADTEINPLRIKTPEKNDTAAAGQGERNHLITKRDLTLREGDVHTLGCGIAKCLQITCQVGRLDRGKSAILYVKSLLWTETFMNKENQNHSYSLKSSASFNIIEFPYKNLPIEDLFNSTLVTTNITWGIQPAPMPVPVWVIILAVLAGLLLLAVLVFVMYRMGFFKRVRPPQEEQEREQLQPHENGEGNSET
Chain of recombinant murine αvβ8 integrin (murine) (Q0VBD0 whole entry, chain 2 of 2, further chain): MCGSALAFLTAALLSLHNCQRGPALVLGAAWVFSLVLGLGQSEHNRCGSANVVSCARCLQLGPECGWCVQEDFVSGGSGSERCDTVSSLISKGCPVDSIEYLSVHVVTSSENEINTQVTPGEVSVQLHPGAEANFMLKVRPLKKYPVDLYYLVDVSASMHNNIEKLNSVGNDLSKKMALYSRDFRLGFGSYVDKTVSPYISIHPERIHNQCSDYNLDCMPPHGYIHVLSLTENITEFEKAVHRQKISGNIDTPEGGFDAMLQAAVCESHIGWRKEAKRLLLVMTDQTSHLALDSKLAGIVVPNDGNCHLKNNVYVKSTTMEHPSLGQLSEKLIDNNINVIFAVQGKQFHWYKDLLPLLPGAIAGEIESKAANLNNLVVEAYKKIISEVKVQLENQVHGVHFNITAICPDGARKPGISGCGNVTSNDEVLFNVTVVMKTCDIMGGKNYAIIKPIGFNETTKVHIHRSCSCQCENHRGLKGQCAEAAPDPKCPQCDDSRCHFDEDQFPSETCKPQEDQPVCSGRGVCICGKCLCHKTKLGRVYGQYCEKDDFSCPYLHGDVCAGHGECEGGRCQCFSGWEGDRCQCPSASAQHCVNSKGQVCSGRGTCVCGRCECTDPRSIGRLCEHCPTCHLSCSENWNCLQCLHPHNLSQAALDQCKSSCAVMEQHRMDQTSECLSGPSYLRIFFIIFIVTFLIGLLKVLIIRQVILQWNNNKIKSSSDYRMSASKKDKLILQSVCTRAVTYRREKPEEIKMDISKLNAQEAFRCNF
Experiment [3] deals with recombinant human αvβ6 integrin (human) (UniProt P06756). The experiment is described as above.
The target of experiment [4] is recombinant human αvβ8 integrin (human) (UniProt P06756). The experiment is described as above.
Experiment [5] deals with recombinant human αvβ6 integrin (human) (UniProt P06756). The experiment is described as follows: ELISA; competitive integrin binding assay: αvβ6-coated plates, isoDGR peptide labeled with peroxidase as probe for the integrin-binding site; Ki. (ELISA stands for enzyme-linked immunosorbent assay.)

The EC50 is the concentration needed to bring the measured effect to its halfway point. In general, Ki refers to a measure of affinity in units of concentration, obtained from inhibition or displacement.

Chain of recombinant murine αvβ6 integrin (murine) (P43406 whole entry, chain 1 of 2): as the sequence (P43406 whole entry, chain 1 of 2) above
Chain of recombinant murine αvβ6 integrin (murine) (Q9Z0T9 whole entry, chain 2 of 2, further chain): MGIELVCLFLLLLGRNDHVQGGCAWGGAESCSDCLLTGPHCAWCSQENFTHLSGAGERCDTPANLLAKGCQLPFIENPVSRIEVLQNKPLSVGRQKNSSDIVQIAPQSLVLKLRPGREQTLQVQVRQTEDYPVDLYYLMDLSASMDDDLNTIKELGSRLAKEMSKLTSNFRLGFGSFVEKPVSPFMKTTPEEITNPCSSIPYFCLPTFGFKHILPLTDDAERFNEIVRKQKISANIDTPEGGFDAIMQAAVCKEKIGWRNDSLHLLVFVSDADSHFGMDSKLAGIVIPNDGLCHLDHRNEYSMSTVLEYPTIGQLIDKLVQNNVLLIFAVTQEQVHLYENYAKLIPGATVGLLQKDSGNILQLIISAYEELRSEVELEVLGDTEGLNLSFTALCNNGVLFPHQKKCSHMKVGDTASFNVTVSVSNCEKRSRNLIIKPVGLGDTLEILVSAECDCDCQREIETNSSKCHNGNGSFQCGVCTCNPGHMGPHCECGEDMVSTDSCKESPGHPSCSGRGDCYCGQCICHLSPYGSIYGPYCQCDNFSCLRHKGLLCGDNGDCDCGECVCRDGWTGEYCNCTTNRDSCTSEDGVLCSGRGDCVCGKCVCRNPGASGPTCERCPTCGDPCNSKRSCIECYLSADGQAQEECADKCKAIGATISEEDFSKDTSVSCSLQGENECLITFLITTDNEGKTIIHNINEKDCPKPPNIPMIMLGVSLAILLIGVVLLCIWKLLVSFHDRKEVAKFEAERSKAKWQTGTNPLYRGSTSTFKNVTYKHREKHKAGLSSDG

For the molecule C(maleimide‑IRDye 800CW)FETLRGEERILSILRHQNLLKELQD-NH2 [2a-IRDye conjugate], the half-maximal effective concentration (EC50) in experiment [1], in experiment [2], in experiment [3] and in experiment [4] was more than 100 nM throughout.
C(maleimide‑NOTA)FETLRGEERILSILRHQNLLKELQD-NH2 [2a-NOTA conjugate]: the Ki in experiment [5] was more than 1000 nM.
